The subject of one series is N=C(N)NCCC[C@H](N)C(=O)O. Kind of series: purified protein. The conditions noted are these: pH 5 (100 mM acetic acid-sodium acetate), 100 mM NaCl, 0.1 mM PLP, 10% glycerol, 20 °C, 10 nM Adc, decarboxylation to agmatine, parentheses = 2.5%-97.5% confidence interval.
Series [1] concerns the target Providencia stuartii arginine decarboxylase Adc (Providencia stuartii). The series is described as follows: cryo-EM structure; isolated Adc decamer, about 0.25 mg/mL, 25 mM MES, 150 mM NaCl, 1 mM DTT, 0.1 mM PLP, pH 6.5; D5 symmetry.
The target is the same in series [2]. The series is described as follows: mass photometry; Refeyn OneMP; 30 nM Adc at pH 5.0 and 20 nM Adc at pH 6.5; only the decamer and species below it analysed.

“Providencia stuartii arginine decarboxylase (Adc) (Providencia stuartii)”: in the series on N=C(N)NCCC[C@H](N)C(=O)O, the Km was 0.331 (0.28, 0.38) mM and the kcat is reported as 102 (97, 108) s^-1.
Regarding “Providencia stuartii arginine decarboxylase Adc (enzyme)”, the stoichiometry N in series [1] and in series [2] was 10 in each case.

One may read the stoichiometry N as the number of molecules, sites or subunits per partner or assembly.

The values are drawn from paper PMC8983666, “Structural and biochemical characterisation of the Providencia stuartii arginine decarboxylase shows distinct polymerisation and regulation” (Communications Biology, 2022).
